PMC9123286 (The Journal of Cell Biology, 2022)

T1: Get3 D57E-TEV-GFP (S. cerevisiae, UniProt Q12154 1-354, D57E)
T1 construct: Get3, cytosolic ATPase of the GET pathway, S. cerevisiae; ATPase-impaired client trap variant D57E; Captured on anti-GFP beads and eluted by TEV cleavage; the oligomeric state in the lysate was not measured; also called Get3 DE; Get3 D57E (DE); source: yeast (BY4741 background), ectopically expressed, in lysate made without detergent; not shown: TEV site-GFP, C-terminal, kept
T1 sequence (looked up): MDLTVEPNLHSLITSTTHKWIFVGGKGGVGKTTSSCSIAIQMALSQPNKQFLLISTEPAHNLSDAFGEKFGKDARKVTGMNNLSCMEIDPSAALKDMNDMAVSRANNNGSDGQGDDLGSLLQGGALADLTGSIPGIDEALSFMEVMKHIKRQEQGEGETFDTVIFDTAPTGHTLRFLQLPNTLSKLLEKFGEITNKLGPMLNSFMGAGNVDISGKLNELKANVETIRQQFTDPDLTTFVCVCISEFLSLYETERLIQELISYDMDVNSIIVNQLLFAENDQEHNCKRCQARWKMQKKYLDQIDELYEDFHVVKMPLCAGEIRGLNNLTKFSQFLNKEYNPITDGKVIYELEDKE


Experiments:
Get3 D57E-TEV-GFP [1] = target: T1, Get3 D57E-TEV-GFP; experiment: co-IP; lysates from Δget3 cells ectopically expressing Get3 DE-TEV-GFP and HA-tagged Erg1 full length, ΔC, Δα1 or Δα2; anti-GFP MicroBeads, no detergent, TEV elution; immunoblot, signal normalised to Get3 in the eluate and to the input
Get3 D57E-TEV-GFP [2] = target: T1, Get3 D57E-TEV-GFP; experiment: co-IP; lysates from cells expressing HA–Erg1 (endogenous promoter) and Get3 DE–TEV–GFP or Get3 DE FIDD–TEV–GFP; anti-GFP MicroBeads, no detergent, TEV elution; immunoblot, signal normalised to Get3 in the eluate and to the input; details: partners not purified

percent reduction of Get3 binding against full-length HA–Erg1 (Get3 D57E-TEV-GFP [1]) [%]	fold enrichment against Get3 DE FIDD (Get3 D57E-TEV-GFP [2]) [fold]	Molecule
95	–	N-terminally HA-tagged Erg1 lacking the second predicted helix of the C-terminal hairpin (Δα2) (from UniProt P32476 1-496) (enzyme)
–	5	N-terminally HA-tagged Erg1 (full length) (enzyme, S. cerevisiae, UniProt P32476 1-496, looked up, Erg1, squalene monooxygenase, S. cerevisiae; also called HA–Erg1; source: yeast, expressed from the endogenous ERG1 promoter (genomic) or ectopically in Δget3 cells, in lysate; not shown: HA, N-terminal, kept) MSAVNVAPELINADNTITYDAIVIGAGVIGPCVATGLARKGKKVLIVERDWAMPDRIVGELMQPGGVRALRSLGMIQSINNIEAYPVTGYTVFFNGEQVDIPYPYKADIPKVEKLKDLVKDGNDKVLEDSTIHIKDYEDDERERGVAFVHGRFLNNLRNITAQEPNVTRVQGNCIEILKDEKNEVVGAKVDIDGRGKVEFKAHLTFICDGIFSRFRKELHPDHVPTVGSSFVGMSLFNAKNPAPMHGHVILGSDHMPILVYQISPEETRILCAYNSPKVPADIKSWMIKDVQPFIPKSLRPSFDEAVSQGKFRAMPNSYLPARQNDVTGMCVIGDALNMRHPLTGGGMTVGLHDVVLLIKKIGDLDFSDREKVLDELLDYHFERKSYDSVINVLSVALYSLFAADSDNLKALQKGCFKYFQRGGDCVNKPVEFLSGVLPKPLQLTRVFFAVAFYTIYLNMEERGFLGLPMALLEGIMILITAIRVFTPFLFGELIG
